According to patent publication US20240261333A1, “NOVEL TARGETS FOR ENHANCING ANTI-TUMOR IMMUNITY” (THE BROAD INSTITUTE, INC., priority 2021, published 2024):

Target: T1, B3GNT2 (Homo sapiens, UniProt Q9NY97)
T1 construct: The respective ORFs of candidate genes [CD274 (NM_014143), MCL1 (NM_021960), JUNB (NM_002229), and B3GNT2 (NM_006577)] were synthesized; expressed in transfected cells; host or cells: A375 melanoma cells (lentiviral ORF overexpression)
T1 sequence (Q9NY97 1-397): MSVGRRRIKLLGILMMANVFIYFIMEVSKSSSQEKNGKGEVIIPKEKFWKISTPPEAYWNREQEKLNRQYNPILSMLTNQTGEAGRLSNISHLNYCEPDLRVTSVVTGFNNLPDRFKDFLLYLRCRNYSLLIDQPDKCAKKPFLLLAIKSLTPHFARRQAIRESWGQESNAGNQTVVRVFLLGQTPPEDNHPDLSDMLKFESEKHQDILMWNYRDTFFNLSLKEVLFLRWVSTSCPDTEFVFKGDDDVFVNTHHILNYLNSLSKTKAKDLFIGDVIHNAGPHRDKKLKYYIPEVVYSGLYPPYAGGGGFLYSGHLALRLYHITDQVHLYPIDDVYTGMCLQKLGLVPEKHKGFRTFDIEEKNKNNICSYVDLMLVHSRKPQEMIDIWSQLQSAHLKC
Assay: Co-IP of FLAG-tagged B3GNT2 followed by mass spectrometry
Assay type: cell-based
Parameters: C-term IgG / C-term flag: unit not given here
Settings: Co-IP followed by mass spectrometry of B3GNT2; for C-term flag / C-term IgG: C-term tag; for C-term flag / N-term FLAG: FLAG pull-down; for C-term IgG / N-term IgG: IgG pull-down; for N-term FLAG / N-term IgG: N-term tag
Experimental: Cells were plated in 10-cm cell culture dishes and grown to 60-80% confluency. For each condition, two biological replicates were harvested for co-IP. Cells were washed with PBS and 4 mL of lysis buffer (20 mM HEPES, 1% Triton X-100, 150 mM NaCl, 1 mM EDTA, and 10% glycerol) containing protease inhibitor cocktail was added. Cells were scraped and lysate was incubated at 4° C. under rotary agitation for 1 h. Lysate was centrifuged at 14,000×g for 10 min at 4° C. Supernatant was transferred to a new tube and an aliquot was taken as the input. […] For Western blots, 10 μg/mL Chicken Anti-FLAG (Aves labs ET-DY100) and IgY control (R&D Systems AB-101-C) antibodies were biotinylated (Thermo Fisher Scientific 90407) and added to the respective conditions. Lysates with antibodies were incubated at 4° C. under rotary agitation overnight. For each mL of lysate, 50 μL of Pierce Protein A/G Magnetic Beads (Mass spectrometry; Thermo Fisher Scientific 88803) or Pierce Streptavidin Magnetic Beads (Western blot; Thermo Fisher Scientific 88817) was washed twice with lysis buffer. Lysates with antibodies were added to the beads and incubated at 4° C. under rotary agitation for 4 h. Beads were washed with lysis buffer 3 times and resuspended in lysis buffer for storage. […] This solution was subjected to solid phase extraction to concentrate the peptides and remove unwanted reagents followed by injection onto a Shimadzu HPLC with fraction collector. Eight fractions were collected and after concentration were injected on a Waters NanoAcquity HPLC equipped with a self-packed Aeris 3 μm C18 analytical column 0.075 mm by 20 cm, (Phenomenex). Peptides were eluted using standard reverse-phase gradients. The effluent from the column was analyzed using a Thermo Orbitrap Elite mass spectrometer (nanospray configuration) operated in a data dependent manner for 54 minutes. […] Scaffold Q+S (Proteome Software) was used to provide consensus reports for the identified proteins.

B1: ARG1 (protein)
chain: MSAKSRTIGIIGAPFSKGQPRGGVEEGPTVLRKAGLLEKLKEQECDVKDYGDLPFADIPNDSPFQIVKNPRSVGKASEQLAGKVAEVKKNGRISLVLGGDHSLAIGSISGHARVHPDLGVIWVDAHTDINTPLTTTSGNLHGQPVSFLLKELKGKIPDVPGFSWVTPCISAKDIVYIGLRDVDPGEHYILKTLGIKYFSMTEVDRLGIGKVMEETLSYLLGRKKRPIHLSFDVDGLDPSFTPATGTPVVGGLTYREGLYITEEIYKTGLLSGLDIMEVNPSLGKTPEEVTRTVNTAVAITLACFGLAREGNHKPIDYLNPPK
- C-term flag: 6
- C-term IgG: 4
- N-term FLAG: 8
- N-term IgG: 4

B2: PBXIP1 (protein)
chain: MDPESERALQAPHSPSKTDGKELAGTMDGEGTLFQTESPQSGSILTEETEVKGTLEGDVCGVEPPGPGDTVVQGDLQETTVVTGLGPDTQDLEGQSPPQSLPSTPKAAWIREEGRCSSSDDDTDVDMEGLRRRRGREAGPPQPMVPLAVENQAGGEGAGGELGISLNMCLLGALVLLGLGVLLFSGGLSESETGPMEEVERQVLPDPEVLEAVGDRQDGLREQLQAPVPPDSVPSLQNMGLLLDKLAKENQDIRLLQAQLQAQKEELQSLMHQPKGLEEENAQLRGALQQGEAFQRALESELQQLRARLQGLEADCVRGPDGVCLSGGRGPQGDKAIREQGPREQEPELSFLKQKEQLEAEAQALRQELERQRRLLGSVQQDLERSLQDASRGDPAHAGLAELGHRLAQKLQGLENWGQDPGVSANASKAWHQKSHFQNSREWSGKEKWWDGQRDRKAEHWKHKKEESGRERKKNWGGQEDREPAGRWKEGRPRVEESGSKKEGKRQGPKEPPRKSGSFHSSGEKQKQPRWREGTKDSHDPLPSWAELLRPKYRAPQGCSGVDECARQEGLTFFGTELAPVRQQELASLLRTYLARLPWAGQLTKELPLSPAFFGEDGIFRHDRLRFRDFVDALEDSLEEVAVQQTGDDDEVDDFEDFIFSHFFGDKALKKRSGKKDKHSQSPRAAGPREGHSHSHHHHHRG
- C-term flag: 4
- C-term IgG: 0
- N-term FLAG: 2
- N-term IgG: 0

B3: DDX20 (protein)
chain: MAAAFEASGALAAVATAMPAEHVAVQVPAPEPTPGPVRILRTAQDLSSPRTRTGDVLLAEPADFESLLLSRPVLEGLRAAGFERPSPVQLKAIPLGRCGLDLIVQAKSGTGKTCVFSTIALDSLVLENLSTQILILAPTREIAVQIHSVITAIGIKMEGLECHVFIGGTPLSQDKTRLKKCHIAVGSPGRIKQLIELDYLNPGSIRLFILDEADKLLEEGSFQEQINWIYSSLPASKQMLAVSATYPEFLANALTKYMRDPTFVRLNSSDPSLIGLKQYYKVVNSYPLAHKVFEEKTQHLQELFSRIPFNQALVFSNLHSRAQHLADILSSKGFPAECISGNMNQNQRLDAMAKLKHFHCRVLISTDLTSRGIDAEKVNLVVNLDVPLDWETYMHRIGRAGRFGTLGLTVTYCCRGEEENMMMRIAQKCNINLLPLPDPIPSGLMEECVDWDVEVKAAVHTYGIASVPNQPLKKQIQKIERTLQIQKAHGDHMASSRNNSVSGLSVKSKNNTKQKLPVKSHSECGIIEKATSPKELGCDRQSEEQMKNSVQTPVENSTNSQHQVKEALPVSLPQIPCLSSFKIHQPYTLTFAELVEDYEHYIKEGLEKPVEIIRHYTGPGDQTVNPQNGFVRNKVIEQRVPVLASSSQSGDSESDSDSYSSRTSSQSKGNKSYLEGSSDNQLKDSESTPVDDRISLEQPPNGSDTPNPEKYQESPGIQMKTRLKEGASQRAKQSRRNLPRRSSFRLQTEAQEDDWYDCHREIRLSFSDTYQDYEEYWRAYYRAWQEYYAAASHSYYWNAQRHPSWMAAYHMNTIYLQEMMHSNQ
- C-term flag: 6
- C-term IgG: 0
- N-term FLAG: 0
- N-term IgG: 0

B4: NCCRP1 (protein)
chain: MEEVREGHALGGGMEADGPASLQELPPSPRSPSPPPSPPPLPSPPSLPSPAAPEAPELPEPAQPSEAHARQLLLEEWGPLSGGLELPQRLTWKLLLLRRPLYRNLLRSPNPEGINIYEPAPPTGPTQRPLETLGNFRGWYIRTEKLQQNQSWTVKQQCVDLLAEGLWEELLDDEQPAITVMDWFEDSRLDACVYELHVWLLAADRRTVIAQHHVAPRTSGRGPPGRWVQVSHVFRHYGPGVRFIHFLHKAKNRMEPGGLRRTRVTDSSVSVQLRE
- C-term flag: 4
- C-term IgG: 0
- N-term FLAG: 4
- N-term IgG: 4

B5: TMEM59 (protein)
chain: EAFDSVLGDTASCHRACQLTYPLHTYPKEEELYACQRGCRLFSICQFVDDGIDLNRTKLECESACTEAYSQSDEQYACHLGCQNQLPFAELRQEQLMSLMPKMHLLFPLTLVRSFWSDMMDSAQSFITSSWTFYLQADDGKIVIFQSKPEIQYAPHLEQEPTNLRESSLSKMSYLQMRNSQAHRNFLEDGESDGFLRCLSLNSGWILTTTLVLSVMVLLWICCATVATAVEQYVPSEKLSIYGDLEFMNEQKLNRYPASSLVVVRSKTEDHEEAGPLPTKVNLAHSEI
- C-term flag: 0
- C-term IgG: 0
- N-term FLAG: 6
- N-term IgG: 0

B6: MTCH2 (protein, UniProt Q9Y6C9 2-303, looked up)
Mitochondrial carrier homolog …: ADAASQVLLGSGLTILSQPLMYVKVLIQVGYEPLPPTIGRNIFGRQVCQLPGLFSYAQHIASIDGRRGLFTGLTPRLCSGVLGTVVHGKVLQHYQESDKGEELGPGNVQKEVSSSFDHVIKETTREMIARSAATLITHPFHVITLRSMVQFIGRESKYCGLCDSIITIYREEGILGFFAGLVPRLLGDILSLWLCNSLAYLVNTYALDSGVSTMNEMKSYSQAVTGFFASMLTYPFVLVSNLMAVNNCGLAGGCPPYSPIYTSWIDCWCMLQKEGNMSRGNSLFFRKVPFGKTYCCDLKMLI
- C-term flag: 2
- C-term IgG: 0
- N-term FLAG: 4
- N-term IgG: 0

B7: LIMA1 (protein)
chain: MESSPFNRRQWTSLSLRVTAKELSLVNKNKSSAIVEIFSKYQKAAEETNMEKKRSNTENLSQHFRKGTLTVLKKKWENPGLGAESHTDSLRNSSTEIRHRADHPPAEVTSHAASGAKADQEEQIHPRSRLRSPPEALVQGRYPHIKDGEDLKDHSTESKKMENCLGESRHEVEKSEISENTDASGKIEKYNVPLNRLKMMFEKGEPTQTKILRAQSRSASGRKISENSYSLDDLEIGPGQLSSSTFDSEKNESRRNLELPRLSETSIKDRMAKYQAAVSKQSSSTNYTNELKASGGEIKIHKMEQKENVPPGPEVCITHQEGEKISANENSLAVRSTPAEDDSPGDSQVKSEVQQPVHPKPLSPDSRASSLSESSPPKAMKKFQAPARETCVECQKTVYPMERLLANQQVFHISCFRCSYCNNKLSLGTYASLHGRIYCKPHFNQLFKSKGNYDEGFGHRPHKDLWASKNENEEILERPAQLANARETPHSPGVEDAPIAKVGVLAASMEAKASSQQEKEDKPAETKKLRIAWPPPTELGSSGSALEEGIKMSKPKWPPEDEISKPEVPEDVDLDLKKLRRSSSLKERSRPFTVAASFQSTSVKSPKTVSPPIRKGWSMSEQSEESVGGRVAERKQVENAKASKKNGNVGKTTWQNKESKGETGKRSKEGHSLEMENENLVENGADSDEDDNSFLKQQSPQEPKSLNWSSFVDNTFAEEFTTQNQKSQDVELWEGEVVKELSVEEQIKRNRYYDEDEDEE
- C-term flag: 2
- C-term IgG: 0
- N-term FLAG: 4
- N-term IgG: 3

B8: MTDH (protein, UniProt Q86UE4 1-582, looked up)
Protein LYRIC: MAARSWQDELAQQAEEGSARLREMLSVGLGFLRTELGLDLGLEPKRYPGWVILVGTGALGLLLLFLLGYGWAAACAGARKKRRSPPRKREEAAAVPAAAPDDLALLKNLRSEEQKKKNRKKLSEKPKPNGRTVEVAEGEAVRTPQSVTAKQPPEIDKKNEKSKKNKKKSKSDAKAVQNSSRHDGKEVDEGAWETKISHREKRQQRKRDKVLTDSGSLDSTIPGIENTITVTTEQLTTASFPVGSKKNKGDSHLNVQVSNFKSGKGDSTLQVSSGLNENLTVNGGGWNEKSVKLSSQISAGEEKWNSVSPASAGKRKTEPSAWSQDTGDANTNGKDWGRSWSDRSIFSGIGSTAEPVSQSTTSDYQWDVSRNQPYIDDEWSGLNGLSSADPNSDWNAPAEEWGNWVDEERASLLKSQEPIPDDQKVSDDDKEKGEGALPTGKSKKKKKKKKKQGEDNSTAQDTEELEKEIREDLPVNTSKTRPKQEKAFSLKTISTSDPAEVLVKNSQPIKTLPPATSTEPSVILSKSDSDKSSSQVPPILQETDKSKSNTKQNSVPPSQTKSETSWESPKQIKKKKKARRET
- C-term flag: 6
- C-term IgG: 0
- N-term FLAG: 0
- N-term IgG: 0
